Data: the nanobody polyreactivity screen of Harvey et al. (2022)

Assay: yeast display, Sf9 membrane polyspecificity reagent, FACS + sequencing; frameworks hold sequencing errors
In short: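 Galactose induction of a Saccharomyces cerevisiae BJ5465 synthetic nanobody display library ran 36–48 hours. The cells were then stained for 1 hour at 4 °C with 10% biotinylated, detergent-solubilized Sf9 membrane reagent, pulled down on streptavidin microbeads and FACS-sorted into low and high (top ~1%) gates on expression and reagent-binding fluorescence. Labels for polyreactivity follow the gate of origin.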

Question: Which “polyreactivity (PSR sort gate)” value does the source give for “QVQLVGSGGGLVQAGGSLRLSCAASGSTIKYYAMGWYRQAPGKERELVARITSDGGSTFYADSVKGRFTISRDNAKNTAYVQMNSLKPEDPAVYYCNTAYAFRHWWFYPMDYWGQGTQVTVSA” here?
Answer: high polyreactivity

Question: Which “polyreactivity (PSR sort gate)” value does the source give for “QVQLVHSGGRLVQAGGRLRLSCAASGSTFSSYARGRYIQGPRKERELVAAISWNGGSTYYADSVKGRFTISRDNAKNTVYLQMNSLKPQDTAVYYCAAIYFRNTYSYGMDYWGQGTQVTVSS” here?
Answer: high polyreactivity

Question: For “QVQLVKSGGGLVQAGGSLRLSCAASVRTILYNAIGWYRQAPGKESELVAAITGGGSTYYADSVKGRFTISRDNAKNTVYLQMNSLKPEDTAVYYCAADLSVVRYDYWGQGTQVTVSS”, which “polyreactivity (PSR sort gate)” value is on record?
Answer: low polyreactivity

Question: With “QVQLVLSGGGLVQAGGSLRLSCAASGNTIIRYAMGWYRQEPGKESELVAAISYSGGRTYYADSVKGRFTISRDNAKNTVYLQMNSLKPEDTAVYYCAARYYRSGYRKKIYYWGQGTQVTVSS” as the sequence, how does the “polyreactivity (PSR sort gate)” value read?
Answer: high polyreactivity

Question: With “QVQLVQSFGGLVQAGGSLRLSCAASGRIFWPYAMGWYRQPPGKERELVAAITGSGSRTYYADSVKGRFTISRDYAKNTVYLHMNSLNREDTAVYYCAATSSTDYDYWGQGTQVTVSS” as the sequence, how does the “polyreactivity (PSR sort gate)” value read?
Answer: low polyreactivity

Question: For “QVQLVQSGAGLVQAGGSLRLSCAPSGRTFWRYPMGLYRQAPGKERELVASISARGGSTYYADSVKGRFTISRDNAKNTVYLQMNSLKPEDTAVYYCKRQSWFTVGGFTYRYDYWGQGTQVTVSS”, which “polyreactivity (PSR sort gate)” value is on record?
Answer: high polyreactivity

Question: With “QVQLVQSGGGLVQAGGSLRLICAASGSNFYGNAMGWYRQAPGKERELVAAISRGGGYTYYADSVKGRFTISRDNAKNTVYLEMNSLKPEDTAVYYCDATRYLHPWYYPYYYWGQVTQVTVSS” as the sequence, how does the “polyreactivity (PSR sort gate)” value read?
Answer: low polyreactivity

Question: With “QVQLVQSGGGLVQAGGSLRLRCAASGRIFTPYAMGWNRQAPGQDRELVAAISASGTRTYYADSVKGRFTISRDNAKNTVYLQMKSLQAEDSAVYSCAAYKSGEPSDYWGQGTQVTVSS” as the sequence, how does the “polyreactivity (PSR sort gate)” value read?
Answer: high polyreactivity

Question: For “QVQLVQSGGGLVQAGGSLRLSCAASGFTFRFYAMGWYRQATGKERELVASINWSGGRTYYADSVKGRFTISRDNAKNTVYLEMNSLKPVDTAVYYCATQYLIQTKYYSWGQGTQVTVSS”, which “polyreactivity (PSR sort gate)” value is on record?
Answer: high polyreactivity

Question: With “QVQLVQSGGGLVQAGGSLRLSCAASGNIFKGYAMRWYRQAPVKERELVAAISKSGGSTYYADSVKGRFTMSRDNAKNTVYLQLNSLKPADTAVYYSNTYTYAGYNYWGQGTQVTVSS” as the sequence, how does the “polyreactivity (PSR sort gate)” value read?
Answer: high polyreactivity

Question: For “QVQLVQSGGGLVQAGGSLRLSCAASGRIFKYNAMGWYRQAPGKERDLVAVITSGGSTYYADSVKGRFTISRDNAKNTFYLQMNSQKPEDTAVYSCAKKYYKVHKFDYWGQGTQVTVSS”, which “polyreactivity (PSR sort gate)” value is on record?
Answer: low polyreactivity

Question: Which “polyreactivity (PSR sort gate)” value does the source give for “QVQLVQSGGGLVQAGGSLRLSCAASGRIFNNYAMGWYRQAPRKERELLAAISGSGGSTYYADSVKGRFTISRDNAKNTVYLQMNCMKPEDTAVYYCSTSGPQYYSRNFDYWGQGTQVTVSS” here?
Answer: low polyreactivity

Question: With “QVQLVQSGGGLVQAGGSLRLSCAASGRISIIYAMVWYRQAPGKERELVARISGSGGSTNYADSVKGRFTISRDNAKNTVYLQMNSLKPEDTAVYYCAARHYAVRRSRYPGKLGYYWVQGTQVTVSS” as the sequence, how does the “polyreactivity (PSR sort gate)” value read?
Answer: high polyreactivity

Question: With “QVQLVQSGGGLVQAGGSLRLSCAASGSTFSTYAMGWYRQAPGKERELVAAISRYGGLTNYADSVKGRFTISRDNAKNTVYLQMNSLKPEDTAVYYCAARRYDTGNGYDYWGQGTQVTVSS” as the sequence, how does the “polyreactivity (PSR sort gate)” value read?
Answer: high polyreactivity

Question: For “QVQLVQSGGGLVQAGGSLRLSCADSGFIFFTNAMGRYRQAPGQDREFVAAISDSSGSTYYADSVKGRFTISRDNAKNTVYLQMNSLKPEDTAVYYCAAEYPQVTIIGYYYYWGQGTQVTVSS”, which “polyreactivity (PSR sort gate)” value is on record?
Answer: low polyreactivity

Question: For “QVQLVQSGGGLVQAGGSLSLSCAASGYIFISYAMGWNRQAPGQEREFVAAITGDGGSTYADSVKGRFTISRDNAKKTVYGQMNSLKPEDTAVYYCAKKGNASRYFIYDYWGQGTQVTVSS”, which “polyreactivity (PSR sort gate)” value is on record?
Answer: low polyreactivity

Question: For “QVQLVQSGGGLVQAGVSLRLSCAPSGFTFYKYAMGWYRQAPGKERELVAAISGSGTSTYYADSVKGRFTISRHNAKNTVYLQMNSLKPEDTAVYYCATRIVFTRRRMYSWGQGTQVNVSS”, which “polyreactivity (PSR sort gate)” value is on record?
Answer: high polyreactivity

Question: With “QVQLVQSGGGLVQEGGSLRLSCAASGSTLSIYAMGWYRQAPGKERELVASITTSGSSTYYADSVKGRFTISRDNAKNTVYLQMNSLKPEDTAVYYCAKRKSYRSQPWGYDYWGQGTQVTVSS” as the sequence, how does the “polyreactivity (PSR sort gate)” value read?
Answer: high polyreactivity

Question: Which “polyreactivity (PSR sort gate)” value does the source give for “QVQLVQSWGGLVQAGGSLRLICAASGSIIAYNAMGWYRQAPGKEREMVAAITISGGSTYYADSVKGRFTISRDNAKNNVYLQMNSLKPEDTAVYYSAAAIPGARSRRSYGKYFYWGQGTQVTVSS” here?
Answer: low polyreactivity

Question: With “QVQLVVSGGGLVHAGGSLRLSCAASGNTIFYYDLGGYIQAPGKERELVADITSRGTRTYYADSVKGRFTISRDKAKNTVYLQMNSLKPEDTAVYYCNKARGVAYDWGQGTQVTVSS” as the sequence, how does the “polyreactivity (PSR sort gate)” value read?
Answer: high polyreactivity

Question: Which “polyreactivity (PSR sort gate)” value does the source give for “QVQLVVSGGGLVQAGGILRLICAASGIIFSFYTMGGYRQAPGKERELVAAISTGGGSTYYADSVKGRFTISRDNAKNTVYLQMNSLIPEDTAVSYCAASQSWYWGGAHDNGEFGYCGQGTQVTVSS” here?
Answer: low polyreactivity

Question: With “QVQLVVSGGGLVQAGGSLRLSCAASGFIFGYYAMGWYRQAPGNERALDAAITGRGGSTNYADSVKGRFTISRDNAKNTVYLQMNSLKPEDTAVYYCAKRWRSYSRGGDYWGQGTQVTVSS” as the sequence, how does the “polyreactivity (PSR sort gate)” value read?
Answer: high polyreactivity

Question: With “QVQLVVSGGGLVQAGGSLRLSCAASGFTFIVNAMGWYRQAPGKERELVAAISWNGGSTYYADSVKGRFTISRDNAKNTVYLQMNSLKPEATAVYYCAAVRYNSRGSTTPSEMYYWGQGTQVTVSS” as the sequence, how does the “polyreactivity (PSR sort gate)” value read?
Answer: low polyreactivity

Question: For “QVQLVVSGGGLVQAGGSLRLSCAASGRFFGYYARGWYRQAPGEERELVAAITRGGSTNYADSVKGRFTISRDNAKNTVYLQMNSLKPEDTAVYYCNARRYRPGTASYDYWGQGTQVTVSS”, which “polyreactivity (PSR sort gate)” value is on record?
Answer: high polyreactivity

Question: With “QVQLVVSGGGLVQAGGSLRLSCAASGRIFRSYAKGWYRQAPGKERELVAAINYGGTSTYYADSVKGRFTISRDNAKNTVYLQMNSLKPEDTAVYYCAARRPTSPRRYESWGQGTQVTVSS” as the sequence, how does the “polyreactivity (PSR sort gate)” value read?
Answer: high polyreactivity

Question: For “QVQLVVSGGGLVQAGGSLRLSCAASGSTFSLNAMGWYRQAPGKERELVAVITRGTSTYYADSVKGRFTISRDNAKNTVYLQMNRLTPEDNAVYYCAAAVWWSVVWAARYGYWGQGTQVTVSS”, which “polyreactivity (PSR sort gate)” value is on record?
Answer: low polyreactivity

Question: With “QVQLVVSGGGLVQAGGSLRLSCAASGYIFVYNAMGWYRQAPGKERELVSAITDGGGSTYADSVKGRFTISRDNAKNTVYLQMNSLKPEDTAVYYCAALYSDTTWYVLYYYWGQGTQVTVSS” as the sequence, how does the “polyreactivity (PSR sort gate)” value read?
Answer: low polyreactivity

Question: With “QVQLVVSGGGLVQAGGSLRLSGAASGSIFWVYAMGWSRQAPGKELELVAAINWRGGSTYYADSVKGRFTISRDNAKNTVYLQKNSLKPEDTAVYNCAVQPNYYGMGYWGQGTQVTVSS” as the sequence, how does the “polyreactivity (PSR sort gate)” value read?
Answer: high polyreactivity

Question: For “QVQLVYSGGGLVQAGGSLRLSCAASGRTFSWYAMGWYRTAPGKESELVAAITWSGGSTYYADSVKGRFTISRDNAKNTVYLEMNSLKPEDTAVYFCNALRYSNRRYYSTGPHDYWGQGTHVTVSS”, which “polyreactivity (PSR sort gate)” value is on record?
Answer: high polyreactivity

Question: With “QVQLVYSGGGLVQAGGSLSLSCAASGSTIDGYAMGWYRQAPGKERELVAAISSSGASTYYADSVKGRFTISRDNAKNTVYLQMNSLKPEDTAVYYCNRVTCQQKNDYWGQGTQVTVSS” as the sequence, how does the “polyreactivity (PSR sort gate)” value read?
Answer: high polyreactivity

Question: For “QVQLVYSGGGLVQSGGSLRLSCAASGYIVQPYAMGWYRQAQGKERELVAPISWRGGSTYSADSVKGRFTISRDNAKNTVYLQMYSLKPEDTAVYYFAKDYYYGLEHYGYWGQGTQVTVSS”, which “polyreactivity (PSR sort gate)” value is on record?
Answer: low polyreactivity

Question: Which “polyreactivity (PSR sort gate)” value does the source give for “QVQNEESGGGLVQAGGSLRLSCAASGRNFSSYAMGWYRQAPGKERELVAAISRAGGTYYADSVKGRFTISRDNAKNTVYLQMNSMKPEDTAVYYCAARQSVYGLRSDFYYWGQGTQVTVSS” here?
Answer: high polyreactivity

Question: Which “polyreactivity (PSR sort gate)” value does the source give for “QVQNVESGRGLVQAGGSLRISCAASGDYAMGWSIQAPGTERELVAAISRRGGSTYYADSVKGRFTISRDNAKNTVYLQMNSLKQDDTAVYSCAADYSSRNRGNRYRLDYWGQGTQVTVSS” here?
Answer: high polyreactivity

Question: For “QVQPVESAGGLVQAGGSLRLSCAASGSTFARYAMGWFSQAPGKERELVAVITWTGGSTYADSVKGRFTISRDNAKNTVYLQMNSLNPEDTAVYYCNAVHATRRRLGYWGQGTQVTVSS”, which “polyreactivity (PSR sort gate)” value is on record?
Answer: low polyreactivity

Question: For “QVQPVESGGGLVQAGGSLRLSCAASGRTFWYYTMGWYRQAPGKERELVAAITSVGSTYYADSVKGRFTISRDNAKNTVYLQMNSLKPEDTAVYYCAKLYSYTHQSFDHWGQGTQVTVSS”, which “polyreactivity (PSR sort gate)” value is on record?
Answer: high polyreactivity

Question: Which “polyreactivity (PSR sort gate)” value does the source give for “QVQPVESGGGLVQAGGSLRLSCAASGSTFTVNAMRWYRQPPGNERELVAAITFSGTSTYYADSVKGRFTISRDNAKNTVYLQMNSLKPEDTAVYYCNAVVWGYSKSLGDTRTKYEYWGQVTQVTVSS” here?
Answer: high polyreactivity

Question: For “QVQQLESAGGLVQAGGSLRLSCAASGTITVLYKMGWFRQAPGKEREFVASINYGTSTYYADSVKGRFSVSPDSAKHTVYLQMNSLNPEDTAVYYCAAAYRWQDVYRYWGLGTQVTVSS”, which “polyreactivity (PSR sort gate)” value is on record?
Answer: low polyreactivity

Question: With “QVQQQESGGGLVQAGGSLRLSCAASGNTSDTGYMGWYRQAPGKERKVVASIDYGSNTYYADSVKVRFTISRDNAKNTVYLQMNSLKPEDTAVYYCAAYYIGDYTLVYWGQGTQVTVSS” as the sequence, how does the “polyreactivity (PSR sort gate)” value read?
Answer: high polyreactivity

Question: Which “polyreactivity (PSR sort gate)” value does the source give for “QVQQQESGGGLVQAGGSLRLSCAASGTIFQLTVMGRYRQAPGKDRELVASIDYGGNTNYADSVKGRFTISRDNAKNTVYLQMNCRKPEDTAVYYCAASSDSWTTHPYWGQGTQVTVRS” here?
Answer: low polyreactivity

Question: Which “polyreactivity (PSR sort gate)” value does the source give for “QVQQQESGGGLVQAGGSLRLSCAASGYIFQAENMGWYRQAPGKERELVAAITIGASTYYADSVRGRFTISRDNAKNTVYLQMNSVKPEDTAVYYCAAKRFQYRTLYDYWGQGTQVTVSS” here?
Answer: high polyreactivity

Question: For “QVQQVESWGGLLQAGGSLRLSCAASGSIFTLYAMGWYREAPGKERELVADITWSGGSTYYADSVKGRFTISRDNAKNTVYLEMNSLKPEDTAVYYCAIDYLAGGPWEGHVEREYDYWGQGTQVTVSS”, which “polyreactivity (PSR sort gate)” value is on record?
Answer: low polyreactivity

Question: Which “polyreactivity (PSR sort gate)” value does the source give for “QVQREESGGGLVQAGGSLRLSCAASGFTFRYYAMGRYRQAPGKERELVAAITWSGGSTYYADSVKGRFTISRDNAKNTVYLQLNSLKPEDTAVYYCNVEAVAWWPEEDYWGQGTQVTVSS” here?
Answer: high polyreactivity

Question: Which “polyreactivity (PSR sort gate)” value does the source give for “QVQREESGGGLVQAGGSLRLSCAASGLTFTTYAMGWYRQAPGKERELVAAISRRGSRTYYADSVKGRFTISRDNAKNTVYLQMNSLKPEDTAVYYCNALTGSFKTYSFDYWGQGSQVTVSS” here?
Answer: high polyreactivity
